Data from patent US20080171037A1, “Apo-3 ligand polypeptide” (Genentech, Inc., priority 1997, published 2008).
“Also recorded” adds a separate entry of the source.

T1: Apo-3 (Homo sapiens, UniProt Q93038)
T1 construct: made in house
T1 sequence (Q93038 25-199 limits assumed): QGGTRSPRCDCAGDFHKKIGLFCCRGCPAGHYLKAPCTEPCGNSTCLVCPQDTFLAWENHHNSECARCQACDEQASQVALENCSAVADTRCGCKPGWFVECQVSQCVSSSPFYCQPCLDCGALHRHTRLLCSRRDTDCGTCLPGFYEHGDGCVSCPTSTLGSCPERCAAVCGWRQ


Experiments:
MCF-7 cells = assay: Apoptosis by soluble Apo-3 Ligand in MCF-7 cells transfected with caspase inhibitors or FADD mutant; type: cell-based, human; details: CHX 1 hour, soluble Apo-3 Ligand 2 μg/ml 14 hours, FIG. 9D
Experimental: MCF-7 cells were transfected by lipofection with empty vector (pRK5; EP 307,247) or with expression plasmid encoding the caspase inhibitors, p35 or CrmA, or a dominant-negative FADD mutant (Tularik, South San Francisco, Calif.). Sixteen hours later, the cells were pre-treated with CHX for 1 hour, and then treated for an additional 14 hours with soluble Apo-3 Ligand (2 μg/ml).

NF-κB [1] = assay: NF-κB activation, electrophoretic mobility shift assay, HeLa cells; type: cell-based, human; details: FIG. 5A
Experimental: In a first assay, HeLa cells (ATCC CCL 22) were treated with His-tagged soluble Apo-3 Ligand (described in Example 3) (10 μg/ml) in duplicate or with vehicle for 30 minutes. His-tagged Apo-2 ligand (see WO 97/25428) or TNF-alpha (Pennica et al., Nature, 312:724-729 (1984)) were assayed for comparison. Nuclear extracts were prepared and 1 μg of nuclear protein was reacted with a ^32P-labelled NF-κB-specific synthetic oligonucleotide probe

[2] = test system: MCF-7 breast carcinoma cells; assay: Apoptosis in MCF-7 breast carcinoma cells (microscopy, Hoechst dye); type: cell-based, human; details: MCF-7 cells pre-treated with CHX 10 μg/ml, ligand 2 μg/ml, 14 hours, FIG. 9A
Experimental: Human MCF-7 breast carcinoma cells (ATCC HTB 22) were pre-treated for 1 hour with cyclohexamide (CHX) (10 μg/ml) and incubated for 14 hours with soluble Apo-3 Ligand (2 μg/ml; prepared as described in Example 3 above) alone or together with zVAD-fmk (Research Biochemicals) (100 nM). The cells were then stained with Hoechst dye and photographed by phase (FIG. 9A, left) and by fluorescence (FIG. 9A, right) microscopy. In FIG. 9A, arrowheads indicate some of the apoptotic cells (left) and their condensed nuclei (right).
In a separate experiment, the MCF-7 cells were pre-treated for 1 hour with buffer or CHX, incubated for an additional 14 hours with the indicated concentrations of soluble Apo-3 Ligand (see FIG. 9B), and apoptotic or live cells were score by microscopy.

[3] = test system: HeLa S3 cervical carcinoma cells; assay: Apoptosis in HeLa S3 cells (DNA fragmentation analysis); type: cell-based, human; details: HeLa S3 cells pre-treated with CHX, FIG. 9C
Experimental: HeLa S3 cervical carcinoma cells (ATCC CCL 2.2) were similarly pre-treated with CHX and then incubated with soluble Apo-3 Ligand (prepared as described in Example 3 above) alone or together with zVAD-fmk or DEVD-fmk (Research Biochemicals) (100 nM). The treated cells were then subjected to DNA fragmentation analysis.

NF-κB [4] = assay: NF-κB activation, electrophoretic mobility shift assay, 293 cells; type: cell-based, human; details: 3 hours, FIG. 5B and 5C
HeLa cells = assay: Apoptosis in HeLa cells transfected with full length Apo-3 Ligand (FACS, annexin V binding); type: cell-based, human; details: HeLa cells transfected with plasmid encoding amino acids 1 to 249, CD4-positive cells, FIG. 6
Experimental: A pRK5 plasmid (see EP 307,247) encoding Apo-3 Ligand polypeptide (amino acids 1 to 249 of FIG. 1), or empty pRK5 plasmid, was transiently transfected along with a pRK5 plasmid encoding human CD4 as a marker for transfection into human HeLa cells by electroporation, and the cells were plated in tissue culture dishes. Four hours later, the caspase inhibitor z-VAD-fmk (Research Biochemicals) (200 μM) was added to some of the dishes. Twenty hours later, apoptosis was determined by FACS analysis of cells positive for the CD4 marker by measuring binding of fluorescein isothiocyanate (FITC)-conjugated annexin V (Brand Applications) (see WO 97/25428).

[5] = test system: Jun N-terminal kinase (JNK/SAPK); assay: JNK/SAPK activity in 293 cells transfected with full length Apo-3 Ligand; type: cell-based, human; details: 293 cells transfected, FIG. 7
Experimental: The pRK5 plasmid encoding Apo-3 Ligand polypeptide or empty pRK5 plasmid (see Example 6 above) was transiently transfected into human 293 cells (ATCC CCL 1573) by calcium phosphate precipitation. Four hours later, one set of cells was treated with z-VAD-fmk (Research Biochemicals) (200 μM). Twenty hours later, the cells were harvested and analyzed for activity of Jun N-terminal kinase (JNK; also called stress activated protein kinase or SAPK) using a commercially available JNK/SAPK assay kit (New England Biolabs), and according to the manufacturer's instructions.

Apo-3 = target: T1, Apo-3; assay: Co-immunoprecipitation binding assay with Flag-tagged soluble Apo-3; details: ligand and receptor 1 μg/ml, FIG. 8A
Experimental: A binding assay was conducted to determine if Apo-3 Ligand binds Apo-3 receptor. Apo-3 receptor was described by Marsters et al., Curr. Biol., 6:750 (1996). Other investigators have also referred to Apo-3 as DR3 [Chinnayian et al., Science, 274:990 (1996)], Wsl-1 [Kitson et al., Nature, 384:372 (1996)], TRAMP [Bodmer et al., Immunity, 6:79 (1997)], or LARD [Screaton et al., PNAS, 94:4615-4619 (1997)].
(§1) A Flag-epitope tagged soluble Apo-3 was produced (as described for DR5 in Sheridan et al., Science, 277:818 (1997)) and tested in a co-immunoprecipitation assay to examine its ability to associate with a histidine tagged soluble Apo-3 Ligand (see Example 3 above). […] The respective ligands (1 μg/ml) and receptors (1 μg/ml) were incubated for 1 hour at room temperature. The reaction mixtures were subjected to precipitation with anti-Flag antibody conjugated to sepharose beads (Kodak) (FIG. 8A, left) or nickel-sepharose (Qiagen) (FIG. 8A, right) by overnight incubation at 4° C. according to manufacturer's instructions and resolved by gel electrophoresis. The ligands were visualized by Western blot analysis with nickel-conjugated horseradish peroxidase. In FIG. 8A, molecular weight markers (kDa) are indicated on the left.

DR5 = target: T2, DR5 (Homo sapiens, UniProt O14763); assay: Co-immunoprecipitation binding assay with DR5 ECD; details: ligand and receptor 1 μg/ml, FIG. 8A
T2 construct: the ECD of the Apo-2L receptor, DR5; made in house
T2 sequence (O14763 56-184 limits assumed): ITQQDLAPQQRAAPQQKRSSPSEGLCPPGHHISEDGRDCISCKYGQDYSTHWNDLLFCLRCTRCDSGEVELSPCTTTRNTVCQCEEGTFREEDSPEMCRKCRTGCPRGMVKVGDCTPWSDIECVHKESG
Experimental: as §1

| Molecule | effect of transfection on induction of apoptosis by Apo-3 Ligand (MCF-7 cells) | NF-κB activation (NF-κB [1]; 10 μg/ml, 30 minutes) | level of NF-κB activation compared with Apo-2 ligand (NF-κB [1]) | level of NF-κB activation compared with TNF-alpha (NF-κB [1]) | apoptosis (morphological changes and chromatin condensation) [2] | apoptosis (internucleosomal DNA fragmentation) [3] | NF-κB activation (NF-κB [4]) | level of apoptosis compared with pRK5 (control) (HeLa cells) | level of JNK/SAPK activity compared with pRK5 control [5] | binding to Apo-3 (Apo-3) | binding to Apo-3 (Apo-3; listed as Apo-3L) | binding to DR5 (DR5) |
| --- | --- | --- | --- | --- | --- | --- | --- | --- | --- | --- | --- | --- |
| p35: virus-derived caspase inhibitor, expressed from a transfected plasmid (protein, UniProt P08160 1-299, looked up) Early 35 kDa protein: MCVIFPVEIDVSQTIIRDCQVDKQTRELVYINKIMNTQLTKPVLMMFNISGPIRSVTRKNNNLRDRIKSKVDEQFDQLERDYSDQMDGFHDSIKYFKDEHYSVSCQNGSVLKSKFAKILKSHDYTDKKSIEAYEKYCLPKLVDERNDYYVAVCVLKPGFENGSNQVLSFEYNPIGNKVIVPFAHEINDTGLYEYDVVAYVDSVQFDGEQFEEFVQSLILPSSFKNSEKVLYYNEASKNKSMIYKALEFTTESSWGKSEKYNWKIFCNGFIYDKKSKVLYVKLHNVTSALNKNVILNTIK | blocked induction of apoptosis |  |  |  |  |  |  |  |  |  |  |  |
| soluble Apo-3 Ligand (protein) MGHHHHHHHHHHSSGHIDDDDKHMRASLSAQEPAQEELVAEEDQDPSELNPQTEESQDPAPFLNRLVRPRRSAPKGRKTRARRAIAAHYEVHPRPGQDGAQAGVDGTVSGWEEARINSSSPLRYNRQIGEFIVTRAGLYYLYCQVHFDEGKAVYLKLDLLVDGVLALRCLEEFSATAASSLGPQLRLCQVSGLLALRPGSSLRIRTLPWAHLKAAPFLTYFGLFQVH |  | induced significant NF-κB activation | comparable | weaker | induced marked apoptosis | induced marked apoptosis |  |  |  |  |  |  |
| Apo-3 Ligand: Novel human TNF family polypeptide of 249 amino acids encoded by clone DNA30879-1152 (ATCC 209358) (protein) MGHHHHHHHHHHSSGHIDDDDKHMRASLSAQEPAQEELVAEEDQDPSELNPQTEESQDPAPFLNRLVRPRRSAPKGRKTRARRAIAAHYEVHPRPGQDGAQAGVDGTVSGWEEARINSSSPLRYNRQIGEFIVTRAGLYYLYCQVHFDEGKAVYLKLDLLVDGVLALRCLEEFSATAASSLGPQLRLCQVSGLLALRPGSSLRIRTLPWAHLKAAPFLTYFGLFQVH |  |  |  |  | induced apoptosis |  | NF-κB activation | about a doubling of the level of apoptosis | detectable increase; also recorded: increased JNK/SAPK activity | bound to Apo-3 | specifically binds to Apo-3 | not to DR5 |
